The source of these data is a protein production outcome set (Wang et al. 2014).

A short description of the data set: label from the status in PepcDB records.

For “MLSYPRYLAVFLLIIGQSCLAFAEEQPQVGQLFKLFDSGESMPRATIEQNIALLEKLISSDDIERIEKLNQIKCWNQASDTEEEIAKALNYAEQALSQIPSTASTHFITDINLCRAWFLQLTGDINGAMEGYTKSVQSAYEHEDIKLIADARSLRGALYSYTGDFSEALDDLVTAQGLYESLNLTGWANINLTDIATSFRRYGDPESAIKYYKKLKELYLKNGNKEQVANVMSEIGIALDEMGKHEQAIEHFRFSYQYFKDQKLNIVAAINATNIAYSLIQLNRLDEAENYLNEAAPDISENEPAAYSFMKLFMGKIRNQQGRYQEALDELSAAEHAFRVMHNDRGLIQLLQLKSDIYAAMEDLPQAYHILQEFIALTKKVDDSSIAHQTTELKVKFDTSWIESENKRLIDNQKLKEQELTLLEKNKSLQLIILLLTGCILATVSLFAYKQVHRNRQLQTIALTDYLTQLPNRRHIYAQAEQYFQLALKQQIPFSIIIFDADHFKKINDNFGHEIGDQALLTIAEASKTLTTDRNLVGRIGGEEFLILLPNTDADRAWKLAHELQTLITRFGAINLPVELKLTVSAGVATLPIQSELQDQNFARLLKRADNALYEAKNAGRNCVKAAEITG”, the protein production entry is recorded as “failed”.
The result for “MLTAFTAGLLLITVSELGDKTFFIAMILAMRYPRRWVLVGVVGGLAAMTILSVLMGQIFTFLPTRYINYAEVALFLIFGTKLLWDARRIKATANLEEMEDAEKAIASGEKKLKIVPRGWGIVVESFALTFVAEWGDRTQIATIALAASNNAWGVSAGAILGHTICAVIAVMGGKFVAGRISEKTVTLIGGLLFYLFAVVSWWTKIA” reads “failed”.
The result for “MLTANIQAASSTRRYSDYVTRSWSHALPIGRKRINLDAIAQLAGERDIVGLQESDPGSLRSGFTNQTCYLAQRAGFHYWSHQPNRRMAGVASSANGLLSRLKPRQIHNHALPGRIPGRGVLLAKFGNGGFDSLVVAVVHLSLGVRSRMAQLVFIADLLAEYPNTILMGDFNCRADCSEMQVLYRRTRLQPPGVVIPTFPSWRPERAIDHILVSEGFYICKTEAVPAAFSDHLAVSMDLVIPQRILRLEHHHHHH” reads “failed”; that for “MLTDAHCRAAKAKDKLYRINDARGLYLEVKPNGVRAWRYRFKLCGKASWFALGDYPDLSLANAREKCDEARKLVRQGINPVQNRQLTKIKREMDASNTFETIAQEWLALKSWEPVTKSRRLGMLKRVVFPSIGKLPVRTITSAHVLDILNKTVKRGAPTVAAEAKRTMSGVFELAVATLRADTDPVWPVRKALPPNKTQHKAALTSGQVGNLLNAFDSHGGHFQTQMAFRLMWLTLTRANESVQARWDEFDLANGLWKIPKERMKARREHLLPLPRQAVSILTTMQPITGQSTYVFPNRDDRHKPMSDAAFRQALKKLGWATIYSPHGTRTTGSTRLNEMGYRSDAIEAQLAHAEPNSVRRAYNHAIYMVERAEMMQHWADKLDLWKKEASDAAI”, “failed”.
The same measure for “MLTDMQRDSASSSTVTTEQIVYGALPLTTINEPECRAIAITSINGSATLSGVSGPMGDQTDADLLIQLRGWADAIVVGAETARKENYGPVVLPHGIKNQRQKLGRCGLPKLTLLSKSLYFDFSSELFSPDLPSELSPLVITQQPANNSEQWDQRLQKLIDVGVEVIVAPTSTNPLKIAFDALHARRLKKISIEGGPSVYRQALSLGIVDRLHLTIAPNIICPVESPLFGKISDDSFTTRLVLEMLSSSPNGLIFSRYKVIRDTLGNPTQ”: “not failed”.
“MLTEVSDTRIAHKKFGLFYPSVSRPSIFVEGEDRKNFLQGIASQDILKQDEKSLSYSFFLNPKARILFDAWCGNFEDKIALFPPAGTREEFVNHLKKYLFFRTKAKITDMSDHFREIRLVGPETISVLLSLFDNNFSGSSFRMLKNGGYVLIHPTSFQHNLDVGLQADLFIPIDQFETTQKSLEDFTSNKGGVLLDESSYLAYLTEKGIPLFPSELNDSFFPAEAGLDSVGVSYNKGCYVGQEPVTRLKFQGHLNRSLAGFRLEGGPFPKMEFPVTLFNPKDGNEAGILTRTSSSDILGSGIGLGYIKRNFSENGTELLLPDAQLVRVHSLPFV”: the protein production entry is reported as “not failed”.
The same measure for “MLTFIVVNYNGEKYLKECLNSIINQTYRKLRVLVIDNGSTDGSRDILRNFEDYYSRFEVIRNEENLGFAKAANQGIEMANTKFVALVNNDAFLERNWAEEMLKAADDLRAGIFASKILFEDGRINSAGHAIHRGLAVMERGFLEKDEGQFDEPCYVAGACAAAAMYRRSLFEDVGLFDEDYFMYNEDVDLSLRALIRGWKILYVPTAIAYHLHSASTGFLSDFSVYYNSRNWVWSVVKNVPRDLLLREFPYFILRNFSSMLFFCLRGNFAILKSKIDAIRELRKFLEKRREVQQKVRFKAVEDYIEGLGFGKALKVARLAGVLR”: “failed”.
In the case of “MLTHREYFNSKADIWDSLCAPEEKAKLETIIRGLNIAPGSTVLDVGCGTGILIPYLLAAVGPAGRIVALDIAEAMLERAQSKGFPANVEFICADVVSVPYPDATFDEVICNSAFPHFPHKLKALKEMARVLKPGGRVVICHTKARETINNLHRSLGGVIAGDQIPPGSEMMGMLVAAGLTGIEIDEALDYYLASGFKAMYE”, the protein production result was “failed”.
The result for “MLTLILAQVTTLDPARPQAEAVLAGGGRVLAVGTREELSALAPRAEVLDHRDLHLTPGLCDAHTHLVMYGASLSQLDVQGVRSVDEVRARLRERAAQTPAGEWIVGGGFLLSELGLSGYPTAADLDAVSPDHPVLLHSRDHHMIWVNSRALAAAGIHDQTPDPEGGHIVHPLGCLQENAQALVSERVPAPSESEWLAHARAGAQDLAARGYVSTHTMAFEDAAAPLALQTLAARGELPLRVWACLPHERLSAARSLGLSRVPGGLFQWGGVKFFADGALGSRTAWLHAPGFADGSGTGIALDSPDLILERGREALRLGLTPVTHAIGDRANTEVLDVYEQLRPEAEARGIRLRVEHAQHLRPEDLPRFRGLTASVQPVHLPADAAMIRELLPQREQTSYAFRSLKDAGAILAFGSDAPVAPPSVQGNFAAAVSRLGDDGLPLAPAEALTPDDVLWAYTRGPALAAGWDDEGWVKPGARAAFTLWNTIGGEARSLVL” reads “failed”; that for “MLTNIERAKLQLIDETNDMVIITKAEPLDAPNGPEVVWVNKAFENISKYKANEIIGQTPRILQGKETNQNTLKMIKEALKAQTNINVDLLNYTKDGTPYWISFSIVYLRDGQGNLCYLGAIEKDITALKNLNFKLSEKAKTDPLTNVYNQENFFIAGNEAIKNFHQNQEAVGLLFFDVDDFKGINDTQGHIYGDMILKKVAQESLKLVRKTDNVFRYGGDEFAIIFSGIDVKILERKAQQLQKKLAKSHISVSIGGTISIQSDKSINTLLARADEALYYVKANKKGLFFIAE”, “failed”; that for “MLTPVADGVLVHQSELLRNNTVVVRGESGVLIVDPGLTTGEMGCLAEDLRQLGQPVVAGFATHPDWDHALWHADLGDVPRYGTARCSAYLRELRSEEGWQARVAEGLPPEIADETPLELFGLIVGLPAGAELIPWNGPEVRVIEHPAHAPGHAALLVEDRGVLVAGDMLSDLFVPMLDDTEHPVEDYLTGLRLLEKVADDVEVLVPGHGSVATADQVQVRIGRDREYLHALRDGRAPDDPRLGSSVEPGWEWVNDIHEGQAARMARRSERNGADG”, “failed”.
Turning to “MLTTLSCCCNMPVVKVNCWNNMKVQIKSITQWGGVLLLSFSSCYVNANKLIKPNILFIAVDDLKPLIRDYGTAKVQTPNIDKLASQSTVFTRAYSQYPVCGPSRMSILTGLRPESNGIMNLKDKIRDVNPSVITLPQFFKNNGYETAATGKIFDPRNTTSRSEEEVLSWSIPYQRPKHGLKGKTRLAVESIDEPDEKFVDGGILKRGKKLLKQMANKNKPFFLAVGFKKPHLPFVAPKKYYDLYSRESFDLASYQSAPEDADTTYLFHKNQELRGYKPTPIKGGEIKPYPKGKLSSAHQKELLHGYFASVSFIDSLVGELLEELEKTGQAENTVIVFWGDHGFHLGDHGLWGKHTTMEQANHVPLIIKIPGSKANRYAKPVELLDVFPSLTEAAGLSIPNNLQGTSLVSLVTGKLKSIDKVAISQYKRKGAYGYSMRTEQYRYTQWVTPSGKVVYRDLYDLINDPLETKNIINTPEGKLLEVELNKQLHTNSAGLKRLKLEHHHHHH”, the protein production entry was “failed”.
